Patent US20220090209

What was measured:
[1] = molecular target: HIF1β (ARNT), endogenous (Mus musculus) (UniProt P53762); conditions: 5mC at CpG (M.SssI); ChIP-qPCR in isogenic mouse ES cells
HIF1α-HIF1β heterodimer = HIF1α-HIF1β heterodimer (UniProt Q61221+P53762); assay: MST; conditions: 5mC at CpG of RCGTG; 20 mM phosphate, 75 mM NaCl, 5 mM DTT, 0.05% Tween-20, pH 7.4, 25 C; scale: fold lower affinity
HIF2α-HIF1β heterodimer = HIF2α-HIF1β heterodimer (UniProt P97481+P53762); assay: MST; conditions: 5mC at CpG of RCGTG; 20 mM phosphate, 75 mM NaCl, 5 mM DTT, 0.05% Tween-20, pH 7.4, 25 C; scale: fold lower affinity

Row | Substance | binding signal (fold reduction vs unmethylated) [1] | binding signal (HIF1α-HIF1β heterodimer) | binding signal (HIF2α-HIF1β heterodimer)
1 | in vitro methylated human HIF binding region chr16:30,065,212-30,065,711 | 12.4 |  | 
2 | methylated RCGTG ds oligonucleotide |  | 15 | 15
